Reference: patent US20230272049A1

How the values were obtained:
108 of 110 HLA types = test: cell-based or functional assay
[1] = target: the alloreactive alleles (2 of 110 HLA types); test: cell-based or functional assay

- inhibition on target cell growth after 48 h of co-culture (alloreactivity screen) (% target cell inhibition) (108 of 110 HLA types): < 20
- inhibition on target cell growth after 48 h of co-culture (alloreactivity screen) (% target cell inhibition) [1]: > 20
B1: E7-11-28 MGTM (MG-modified TCR E7-11-28) (TCR)
TCR alpha: GQQVMQIPQYQHVQEGEDFTTYCNSSTTLSNIQWYKQRPGGHPVFLIQLVKSGEVKKQKRLTFQFGEAKKNSSLHITATQTTDVGTYFCAGIGSSNTGKLIFGQGTTLQVKPDIQNPDPAVYQLRDSKSSDKSVCLFTDFDSQTNVSQSKDSDVYITDKTVLDMRSMDFKSNSAVAWSNKSDFACANAFNNSIIPEDTFFPSSDVPCDVKLVEKSFETDTNLNFQNLLVIVLRILLLKVAGFNLLMTLRLWS
TCR beta: EPEVTQTPSHQVTQMGQEVILRCVPISNHLYFYWYRQILGQKVEFLVSFYNNEISEKSEIFDDQFSVERPDGSNFTLKIRSTKLEDSAMYFCAITGRVSYEQYFGPGTRLTVTEDLNKVFPPEVAVFEPSKAEIAHTQKATLVCLATGFFPDHVELSWWVNGKEVHSGVSTDPQPLKEQPALNDSRYCLSSRLRVSATFWQNPRNHFRCQVQFYGLSENDEWTQDRAKPVTQIVSAEAWGRADCGITSASYHQGVLSATILYEILLGKATLYAVLVSALVLMAMVKRKDFGSGRAKRSGSG
